Results: patent US11479601B2, “Antibodies specific to Sonic Hedgehog and method of use thereof” (The Regents of the University of California, priority 2016, dated 2022)

What was measured:
[1] = target: T1, full-length Shh polypeptide (Homo sapiens, UniProt Q15465); assay: Flow cytometry: binding of C-terminal Shh antibodies to full-length Shh expressed in transfected cells; settings: antibody at 1:10 (Commercial at 1:50)
T1 construct: Expression of full-length Shh polypeptide in transfected cells; expressed in transfected cells; pCMV-Shh plasmid (Origene)
Method: FACS (1:40). The secondary antibody was a donkey anti-mouse FITC-linked antibody (ab97029, 1:100, Abcam). For cell analysis after treatment assays (chemotherapy or GDC0449), a dead cell marker (SytoxRed, Invitrogen) was also used. For human fresh samples, an anti-CD45 APC-linked antibody (ab28106, 1:100, Abcam), and a dead cells marker (SytoxRed, Invitrogen) were added. For staining of stable transfected cell lines, mouse anti-HA antibody (Abcam, 1:100) and rabbit anti-FLAG antibody (Cell Signaling; 1:400) were used. Corresponding secondary antibodies were donkey anti-mouse AlexaFluor647 (Invitrogen, 1:1000) and donkey anti-rabbit AlexFluor594 (Invitrogen, 1:1000) antibodies. Flow cytometry analyses were performed on AccuriC6 flow cytometer (BD Biosciences), and FACS on FACSAria II (BD Biosciences). Flow analyses were based at least on 200,000 cells, and each test was made at least in triplicate. For all experiments, a negative control with cells processed without primary antibody was used. […]
Expression of full-length Shh polypeptide in transfected cells increased the percentage of cells labeled with the Shh antibodies produced by two of the subclones (2D9 and 2G4) identified after the screening, compared to the percentage of untransfected cells labeled by the same antibodies, as measured by flow cytometry (Table 3).

Shh = assay: Western blot binding to purified and cell-expressed Shh; set-up: species or system human; settings: purified Shh and Shh expressed endogenously and/or exogenously in cells
Text: FIGS. 15A and 15B. Antibodies bind target SHh via Western blot. (FIG. 15A) Purified, recombinant human Shh (19.7 kDa, >98% purity by SDS-PAGE) was probed by the indicated antibodies. (FIG. 15B) Cell lysates from HEK-293T cells (PHX—Phoenix cells), with or without exogenous expression of full-length Shh, and A549 cells were probed with the antibodies produced by clones 2G4 and 2D9. Full-length Shh: ˜50 kDa; N-terminal Shh: ˜19 kDa; C-terminal Shh: ˜25 kDa. Sample 2 was lysate from PHX cells transfected with full-length Shh DNA for about 24 hours. The exogenously expressed Shh appears to be cleaved into N-terminal and C-terminal Shh peptides. Both PHX cells and A549 cells endogenously express Shh.

[2] = target: T2, cell-surface Sonic Hedgehog on A549 cells (Homo sapiens, UniProt Q15465); assay: FACS of non-permeabilized A549 cells labeled with anti-Shh antibodies; type: binding; settings: A549, without membrane permeabilization
T2 construct: recognize cell-surface expression of Sonic Hedgehog, A549 cells were labeled with in-house antibodies; endogenous in cells; host or cells: A549
Method: A549, 293T or 293T (+pCMV Shh) cells were labeled with Sonic Hedgehog (Shh) antibody (Abcam 53281, 1:100) or therapeutic test antibodies (1:100) for 1 hour at RT post serum blocking. Following two PBS washes, a FITC-conjugated secondary antibody (Abcam 97029, 1:100) or an Alexa-Fluor 647 (Invitrogen, 1:1000) was used to label cells. Samples were screened by flow cytometry using an Accuri™ C6 machine (BD Biosciences). For fluorescence activated cell sorting, samples were sorted using an S3e™ Cell Sorter (Bio-Rad) and the Shh+ population was collected. For all experiments, cells processed without primary antibody served as a negative control. Experiments were performed in duplicates or triplicates.
To corroborate that the two anti-Shh antibodies, 1C11-2G4 and 1C11-2D9, recognize cell-surface expression of Sonic Hedgehog, A549 cells were labeled with in-house antibodies and sorted via Fluorescence Activated Cell Sorting (FACS) without membrane permeabilization. […] BMC Cancer. 15:84 (2015); Singh S, Trevino J, Bora-Singhal N, Coppola D, Haura E, Altiok S, Chellappan S P. EGFR/Src/Akt signaling modulates Sox2 expression and self-renewal of stem-like side-population cells in non-small cell lung cancer. Mol Cancer. 11:73 (2012); Cochrane C R, Szczepny A, Watkins D N, Cain J E. Hedgehog Signaling in the Maintenance of Cancer Stem Cells. Cancers (Basel). […]

B1: 2G4: purified mouse monoclonal C-terminal Shh antibody from hybridoma sub-clone 2G4 of clone 1C11, IgG1 kappa (antibody, V domains shown)
VH: EVKLVESGGGLVKPGGSLKLSCAASGFTFSSYTMSWVRQTPAKRLEWVATISSGGGNTYYPDSVKGRFTISRDNARNTLYLQMSSLRSEDTAMYYCARDYRSLFAYWGQGTLVTVSA
VL: QIVLTQSPAIMSASPGEKVTITCSASSSVSYMHWFQQKPGTSPKLWIYSTSNLASGVPARFSGSGSGTSYSLTISRMEAEDAATYYCQQRSSYPFTFGSGTKLEIK
With B1 the “percentage of cells labeled with the Shh antibody (flow cytometry)” value ([1]; +SHh Full-Length transfection) was 2.24%, the “percentage of cells labeled with the Shh antibody (flow cytometry)” value ([1]; No transfection) was 0.17% and the “binding to Shh by Western blot” value (Shh) was “bound to purified Shh”. The “Shh+ cells recognized from a mixed population (FACS)” value [2] was 0.11%.
